Residue numbers refer to the chain shown, from its start. One block for each binder: values may come before it. Ends that are not written are not given here.
How the values were obtained:
[1] = target: T1, SEQ ID NO 127 (15-residue oligopeptide of human gp130) (human, also: linker added for immobilisation); test: peptide microarray, antibody at 10 ug/mL, fluorescence
T1 construct: also called 配列番号127
T1 peptide: VQDLKPFTEYVFRIR

[2] = target: T2, SEQ ID NO 128 (15-residue oligopeptide of human gp130) (human, also: linker added for immobilisation); test: as above
T2 construct: also called 配列番号128
T2 peptide: DLKPFTEYVFRIRCM

[3] = target: T3, SEQ ID NO 108 (15-residue oligopeptide of human gp130) (human, also: linker added for immobilisation); test: as above
T3 construct: also called 配列番号108
T3 peptide: SIKSVIILKYNIQYR

[4] = target: T4, SEQ ID NO 109 (15-residue oligopeptide of human gp130) (human, also: linker added for immobilisation); test: as above
T4 construct: also called 配列番号109
T4 peptide: KSVIILKYNIQYRTK

[5] = target: T5, SEQ ID NO 110 (15-residue oligopeptide of human gp130) (human, also: linker added for immobilisation); test: as above
T5 construct: also called 配列番号110
T5 peptide: VIILKYNIQYRTKDA

[6] = target: T6, 可溶性ヒトgp130受容体 (soluble human gp130 receptor, extracellular region of SEQ ID NO 1 with six histidines) (human, UniProt P40189 23-619); test: ELISA, immobilised soluble human gp130, recombinant antibody from COS1 cells
T6 construct: Secreted from CHO DG44 cells and purified on HisTrap; no cleavage site is stated; also called 可溶性ヒトgp130受容体タンパク質; ヒト可溶性gp130受容体
T6 sequence: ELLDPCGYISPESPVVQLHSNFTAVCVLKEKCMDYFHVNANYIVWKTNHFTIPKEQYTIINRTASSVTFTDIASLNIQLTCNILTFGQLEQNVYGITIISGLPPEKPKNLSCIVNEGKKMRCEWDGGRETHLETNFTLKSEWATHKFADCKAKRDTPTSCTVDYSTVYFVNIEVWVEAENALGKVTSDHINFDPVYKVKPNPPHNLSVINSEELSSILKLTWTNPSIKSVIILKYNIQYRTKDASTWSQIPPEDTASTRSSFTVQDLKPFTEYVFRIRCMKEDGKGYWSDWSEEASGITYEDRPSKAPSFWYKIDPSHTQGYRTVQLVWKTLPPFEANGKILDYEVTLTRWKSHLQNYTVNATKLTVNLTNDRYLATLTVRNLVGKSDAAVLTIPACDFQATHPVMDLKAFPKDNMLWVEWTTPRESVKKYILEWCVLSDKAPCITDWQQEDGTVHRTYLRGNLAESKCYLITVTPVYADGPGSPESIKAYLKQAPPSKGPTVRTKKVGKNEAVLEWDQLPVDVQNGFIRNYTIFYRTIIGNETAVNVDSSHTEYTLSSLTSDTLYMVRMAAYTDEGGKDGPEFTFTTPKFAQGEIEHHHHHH

[7] = target: T6, 可溶性ヒトgp130受容体 (soluble human gp130 …); test: SPR, Biacore T200, gp130 on CM5 (4023 RU), COS1 supernatant as analyte, off-rate screening
[8] = target: T6, 可溶性ヒトgp130受容体 (soluble human gp130 …); test: SPR, Biacore T200, gp130 on CM5, antibody as analyte
[9] = target: T6, 可溶性ヒトgp130受容体 (soluble human gp130 …); test: SPR, Biacore T200, gp130 amine-coupled on CM5 (389 RU), antibody as analyte
[10] = target: T6, 可溶性ヒトgp130受容体 (soluble human gp130 …); test: SPR, Biacore T200, gp130 amine-coupled on CM5, antibody as analyte
[11] = target: T6, 可溶性ヒトgp130受容体 (soluble human gp130 …); test: ELISA, immobilised soluble human gp130, COS1 supernatant, anti-human antibody-HRP
[12] = target: T6, 可溶性ヒトgp130受容体 (soluble human gp130 …); test: SPR, Biacore T200, gp130 amine-coupled on CM5 (266 RU), antibody as analyte

binding result [1]: binds
binding result [2]: binds
binding result [3]: binds
binding result [4]: binds
binding result [5]: binds
binding result [6]: binds
B1: 抗体B (antibody B, mouse anti-human gp130 monoclonal antibody) (antibody, V domains shown)
VH: EVQLQQSGAELVKPGASVKLSCTASGFNIRDTYMHWVKQRPEQGLEWIGRIDPANGNTKYDPKFQDKATMTADTSSNTAYLQLSSLTSEDTAVYYCARRGNYFYAMDYWGQGTSVTVSS
VL: DIVLTQSPASLAVSLGQRATISCRASESVEYYGTSLMQWYQQKPGQPPKLLIYVASNVESGVPARFSGSGSGTDFSLNIHPVEEDDIAMYFCQQSRKVPWTFGGGTKLEIKR
notes: Mouse IgG2b, kappa; Entries are the polypeptides as encoded by the cDNA (leader probably included)

binding result [7]: binds
B2: ヒト化抗体A (H鎖 pFU-AH2, L鎖 AL−4F1) (antibody, V domains shown)
VH: QVQLQQPGAELVQPGTSVRLSCKASGYTFTDYNMDWVKQRPGQGLEWIGDINSHSGGIIYNQKFKDKATLTVDKSSSTAYMQLSSLTSEDSAVYYCTRTYYVYGHFFDYWGQGTLVTVSA
VL: DIQMTQSPSSLSASVGDRVTITCNVSSSVTSMYWYQQKQGKSPQLLVYLTSNLASGVPSRFSGSGSGTQFSLKINNLQPEDFGSYYCQQWSTNPLTFGQGTKLDLKR
notes: also called AL-L4F1 with AH2

Kd [8]: 1.98 nM
koff [8]: 0.000221 s⁻¹
kon [8]: 111000 M⁻¹ s⁻¹
B3: ヒト化抗体AH2−2AL4F1 (antibody, human IgG1, kappa, V domains shown)
VH: B2 VH with T97A
VL: B2 VL
notes: also called AH2−2L4F1

Kd [8]: 0.991 nM
koff [8]: 0.000209 s⁻¹
kon [8]: 211000 M⁻¹ s⁻¹
B4: ヒト化抗体AH2−2L6E6 (antibody, human IgG1, kappa, V domains shown)
VH: B2 VH with T97A
VL: ELVLTQSPGTLSLSAGERATLSCNVSSSVTSMYWYQQKPGKAPKLLIYLTSNLASGVPSRFSGSGSGTDYTFTISSLQPEDIATYYCQQWSTNPLTFGQGTKVEIKR

Kd [9]: 2.27 nM
koff [9]: 0.000203 s⁻¹
kon [9]: 89300 M⁻¹ s⁻¹
B5: ヒト化抗体AH2−L13H10 (antibody, V domains shown)
VH: B2 VH
VL: EIVLTQSPDFQSVTPKEKVTITCNVSSSVTSMYWYQQKPGKAPKLLVYLTSNLASGVPSRFSGSGSGTDFTLTINSLEAEDAATYYCQQWSTNPLTFGQGTKLEIKR
notes: also called AH2−13H10; AH2 with AL-13H10 (AL-L13H10)

Kd [8]: 1.3 nM
koff [8]: 0.000202 s⁻¹
kon [8]: 155000 M⁻¹ s⁻¹
B6: ヒト化抗体AH2−2L14A10 (antibody, human IgG1, kappa, V domains shown)
VH: B2 VH with T97A
VL: DIQMTQSPSTLSASIGDRVTITCNVSSSVTSMYWYQQKPGKAPKLLIYLTSNLASGVPSRFSGSGSGTDFTLTISSLQPEDFATYYCQQWSTNPLTFGQGTKLEIKR

binding result [7]: binds
B7: ヒト化抗体A (H鎖 pFU-AH2, L鎖 AL−14A10) (antibody, V domains shown)
VH: B2 VH
VL: B6 VL
notes: also called AL-L14A10 with AH2

binding result [7]: binds
B8: ヒト化抗体A (H鎖 pFU-AH2, L鎖 AL−6E6) (antibody, V domains shown)
VH: B2 VH
VL: B4 VL
notes: also called AL-L6E6 with AH2

binding result [1]: binds
binding result [2]: binds
binding result [3]: binds
binding result [4]: binds
binding result [5]: binds
Kd [10]: 0.667 nM
koff [10]: 0.000116 s⁻¹
kon [10]: 174000 M⁻¹ s⁻¹
B9: 抗体A (antibody A, mouse anti-human gp130 monoclonal antibody) (antibody, mouse IgG1, kappa, V domains shown)
VH: EVLLQQSGPELVKPGASVKIPCKASGYTFTDYNMDWVKQSHGKSLEWIGDINSHSGGIIYNQKFKDKAILTVDKSSSTAYMELRSLTSEDTAVYYCARTYYVYGHFFDYWGQGTTLTVSS
VL: QSVLTQSPAFISASPGEKVTMTCNVSSSVTSMYWYQQKPGSSPKPWIYLTSNLASGVPPRFSGSGSGTSYSLTISSLEAEDAATYYCQQWSTNPLTFGAGTKLELKR
notes: Mouse IgG1, kappa; also called マウス抗体A; ヒト化前の抗体A(マウス抗体)

binding result [11]: binds
B10: ヒト化抗体A AH9−AL7 (antibody, V domains shown)
VH: EVQLVESGGGLVQPGGSLRLSCKASGYTFTDYNMDWVRQAPGKGLEWVGDINSHSGGIIYNQKFKDRFTISADTSKNTAYLQMNSLRAEDTAVYYCARTYYVYGHFFDYWGQGTLVTVSS
VL: DIQMTQSPSTLSASIGDRVTITCNVSSSVTSMYWFQQRPGQAPKVLIYLTSNLASGVPSRFSGSGSGTDFTFTISSLQPEDIATYYCQQWSTNPLTFGGGTKVDIK
notes: VH on human IgG1 constant region (pFUSEss-CHIg-hG1), VL on human kappa constant region (pFUSE2ss-CLIg-hk); also called AH9-AL7

binding result [1]: binds
binding result [2]: binds
binding result [3]: binds
binding result [4]: binds
binding result [5]: binds
binding result [6]: binds
B11: 抗体C (antibody C, mouse anti-human gp130 monoclonal antibody) (antibody, V domains shown)
VH: EVQVVESGGDLLLPGGSLKLSCAVSGFTFNAYGMSWVRQTPDKRLELVATINSNGDSTYYPDSVKGRFTISRDNAKHTLYLQMSSLKSEDTAMYYCANFYGGFPYWGQGTLVTVSA
VL: VIVLTQSHKFMSTSVGDRVSITCKASQDVDTAVAWYQQKVGHSPKLLIYWAVTRHTGVPDRFTGSGSGTDFTLTISNVQSEDLADYFCQQYSSYPYTFGGGTKLEIKR
notes: Mouse IgG2a, kappa; Entries are the polypeptides as encoded by the cDNA (leader probably included)

binding result [11]: binds
B12: ヒト化抗体A AH8−AL4 (antibody, V domains shown)
VH: EVQLVQSGAEVKKPGASVKVSCKASGYTFTDYNMDWVRQAPGKGLEWVGDINSHSGGIIYNQKFKDRVTITADRSTSTVYMELSGLRSEDTAVYYCARTYYVYGHFFDYWGKGTLVTVSS
VL: DIQMTQSPSSLSASVGDRVTITCNVSSSVTSMYWYQQKQGKSPQLLVYLTSNLASGVPSRFSGSGSGTDFTLTISSLQPEDFATYYCQQWSTNPLTFGQGTKVEIK
notes: VH on human IgG1 constant region (pFUSEss-CHIg-hG1), VL on human kappa constant region (pFUSE2ss-CLIg-hk); also called AH8-AL4

Kd [12]: 4.61 nM
koff [12]: 0.000289 s⁻¹
kon [12]: 62700 M⁻¹ s⁻¹
B13: ヒト化抗体AH2−AL4 (antibody, V domains shown)
VH: B2 VH
VL: B12 VL
notes: VH on human IgG1 constant region (pFUSEss-CHIg-hG1), VL on human kappa constant region (pFUSE2ss-CLIg-hk); also called AH2-AL4

Kd [12]: 3.8 nM
koff [12]: 0.000268 s⁻¹
kon [12]: 70600 M⁻¹ s⁻¹
B14: ヒト化抗体AH2−AL3 (antibody, V domains shown)
VH: B2 VH
VL: B12 VL with S10T, Q39P, S42A, Q44K, V47I, S59A, D69E, E80D, I105V
notes: VH on human IgG1 constant region (pFUSEss-CHIg-hG1), VL on human kappa constant region (pFUSE2ss-CLIg-hk); also called AH2-AL3

Source: JP2018153172A (dated 2018)
